These results are taken from IntAct's records for PubMed 24413433.

B1: Telomere repeats-binding bouquet formation protein 1 (Mus musculus), Q8C0V1-1 (parent)
chain: MESEKPKKTQEMKTDLKLLLECLKYHMGNPLSQKEVLITIHSVCKQNSDAGIYFREIGGLMFIINLAKSSEQSLVKEAALYTLGSIAEENVYCQQSLCTSELFQDLTGLLTNDDSNTNLKRMSVYVLLVLVSNNRNGQTLVREVGCIEVLSQMFRTVLSNYELNLSDNSVFQSYLLWSSVCSTLCVCVNNPQNDENQMLCCSLFPCVNEWLMNCMRPEVIRPICSFIGLTLANNTHAQNCFVSSGGLDVLCQVLVQLESDSHNTLSSAKLAVIVTKTMDACITDNSAAFTVVLSKYHIVSTLLALLLHESLDSREKFSIILAIGHCTEDCEKNQYELLKNNGLPLMIQALTEFKNEDLSKAATYVLHNCKKITGKLSLSLGQNSFGENEIELKDISEKETLREHWKAAKEILCRIKQFEKGGKEEKQQNRSGHYKDNTPSMKVNIQTNLKRLCADSTGGTRAEDKDINQSRELRSYKPSEIMSKACANENQLTTRKKNTNPVHPFCKEKGQSKIVHETTPSCAQNLDKEKTFDQKDSVSQSSDQVLKHLPHTVKNRKQVPETDPFTLCLDIIDREVGIQATDSCSRMLKYTCSGCIVARKLLNSRNFSKFLHSCAYQCVHHKVIMEAEDKYKNELRKTFICAKKILLTPCRRRQLCKESTASEELKIVHQKPDSKKLPGLEAQALNTSIPEAMERRSPVPGQSGLHKKRRIRKDFTKEEVNYLFHGVKTMGNHWNSILWSFPFQKGRRAVDLAHKYHRLIKGPSCAAL
partner: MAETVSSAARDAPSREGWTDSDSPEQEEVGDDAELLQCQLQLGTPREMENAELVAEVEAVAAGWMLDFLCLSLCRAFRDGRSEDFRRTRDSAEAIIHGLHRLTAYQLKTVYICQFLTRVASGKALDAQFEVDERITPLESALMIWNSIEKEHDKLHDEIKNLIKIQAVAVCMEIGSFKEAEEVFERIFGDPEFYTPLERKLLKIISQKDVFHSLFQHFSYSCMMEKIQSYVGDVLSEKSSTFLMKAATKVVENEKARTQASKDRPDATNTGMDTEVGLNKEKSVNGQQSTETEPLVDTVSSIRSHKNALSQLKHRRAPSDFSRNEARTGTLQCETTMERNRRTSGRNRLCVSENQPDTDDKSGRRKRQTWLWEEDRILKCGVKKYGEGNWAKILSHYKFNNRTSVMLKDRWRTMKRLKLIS

In the assay the parent is B1. Conditions: with terf1_mouse Terf1, P70371.
Regarding T648D, the “effect of a mutation on the interaction” value is reported as “disrupting interaction strength”.
